{"source": "paper PMC12449476", "about": "“Transient ligand contacts of the intrinsically disordered N-terminus of neuropeptide Y2 receptor regulate arrestin-3 recruitment” (Nature Communications, 2025)", "experiment_in_all_cases": "NanoBRET equilibrium ligand binding", "key": {"[1]": {"biological_target": "T1, Nluc-Y2R-eYFP E15-20K (Homo sapiens, UniProt P49146, E15K/E16K/E20K)", "T1 construct": "expressed in transfected cells; host or cells: membrane preparations of transiently transfected HEK293", "T1 sequence (P49146 1-381 E15K/E16K/E20K)": "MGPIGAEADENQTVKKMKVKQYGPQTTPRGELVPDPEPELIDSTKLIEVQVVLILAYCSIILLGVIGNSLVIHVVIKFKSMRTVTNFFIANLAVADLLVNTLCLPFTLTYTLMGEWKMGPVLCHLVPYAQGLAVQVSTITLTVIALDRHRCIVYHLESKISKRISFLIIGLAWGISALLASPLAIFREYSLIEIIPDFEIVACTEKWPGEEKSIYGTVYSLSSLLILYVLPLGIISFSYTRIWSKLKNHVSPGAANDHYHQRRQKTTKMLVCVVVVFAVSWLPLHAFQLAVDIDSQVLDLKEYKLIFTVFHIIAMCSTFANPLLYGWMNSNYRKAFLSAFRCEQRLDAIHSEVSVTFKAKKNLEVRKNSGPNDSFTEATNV", "method": "(§1) Briefly, for each data point, membranes containing 0.03 μg total protein were suspended in ice-cold BRET binding buffer (Hank’s balanced salt solution (HBSS) containing 20 mM HEPES (pH 7.4), 0.1% bovine serum albumin (BSA)). The assay was performed in solid black 96-WP with a total assay volume of 100 μL in technical duplicate or triplicate. […] To determine unspecific binding, 100 µM of the Y2R antagonist JNJ-31020028 (Selleck Europe) were added to each well. […] To start the dissociation measurement, the antagonist JNJ-31020028 was added to a final concentration of 50 µM (20 µL) using the built-in injector system of the plate reader and the BRET decay was measured for 20 min. Raw BRET was calculated as the ratio of fluorescence to luminescence, and the background value of the unspecific binding controls was subtracted to obtain the netBRET signal."}, "[2]": {"biological_target": "T2, Nluc-Y2R-eYFP D/E35-39K (Homo sapiens, UniProt P49146, D35K/E37K/E39K)", "T2 construct": "expressed in transfected cells; host or cells: HEK293, transiently transfected, membrane preparations", "T2 sequence (P49146 1-381 D35K/E37K/E39K)": "T1 sequence (P49146 1-381 E15K/E16K/E20K) with K15E, K16E, K20E, D35K, E37K, E39K", "method": "as §1"}, "[3]": {"biological_target": "T3, Nluc-Y2R-eYFP Δ2-41 (Homo sapiens, UniProt P49146)", "T3 construct": "expressed in transfected cells; host or cells: membrane preparations of transiently transfected HEK293", "T3 sequence (P49146 with tags, fused parts or gaps)": "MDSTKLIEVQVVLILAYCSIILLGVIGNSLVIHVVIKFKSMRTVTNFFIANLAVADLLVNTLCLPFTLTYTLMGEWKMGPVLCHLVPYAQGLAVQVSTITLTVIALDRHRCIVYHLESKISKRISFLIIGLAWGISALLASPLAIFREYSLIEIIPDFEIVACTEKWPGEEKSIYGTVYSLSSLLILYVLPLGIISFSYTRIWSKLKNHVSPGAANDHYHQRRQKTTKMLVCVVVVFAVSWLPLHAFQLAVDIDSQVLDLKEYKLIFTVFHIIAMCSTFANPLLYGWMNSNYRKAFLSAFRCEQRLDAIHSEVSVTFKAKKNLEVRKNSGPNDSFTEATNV", "method": "as §1"}, "[4]": {"biological_target": "T4, WT Nluc-Y2R-eYFP (Homo sapiens, UniProt P49146)", "T4 construct": "expressed in transfected cells; host or cells: membrane preparations of transiently transfected HEK293", "T4 sequence (P49146 1-381)": "T1 sequence (P49146 1-381 E15K/E16K/E20K) with K15E, K16E, K20E", "method": "Briefly, for each data point, membranes containing 0.03 μg total protein were suspended in ice-cold BRET binding buffer (Hank’s balanced salt solution (HBSS) containing 20 mM HEPES (pH 7.4), 0.1% bovine serum albumin (BSA)). The assay was performed in solid black 96-WP with a total assay volume of 100 μL in technical duplicate or triplicate. […] Raw BRET was calculated as the ratio of fluorescence to luminescence, and the background value of the unspecific binding controls was subtracted to obtain the netBRET signal."}}, "note": "Where a chain is given by its changes, count along the chain named.", "data": [{"substance": "K18-Tamra-NPY: tetramethylrhodamine(Tamra)-labeled peptide (K^18-Tamra-NPY)", "values": [{"measurement": "BRETmax", "setting": "[1]; HEK293 membranes, 10 min RT, mean, 95% CI 0.0243 to 0.0371", "value": 0.0307}, {"measurement": "Fraction high affinity", "setting": "[1]; mean, 95% CI 0.0705 to 0.0862", "value": 0.0783}, {"measurement": "KD, high replicates (log)", "setting": "[1]; replicate 1", "value": -9.24}, {"measurement": "KD, low replicates (log)", "setting": "[1]; replicate 1", "value": -6.58}, {"measurement": "KD, high replicates (log)", "setting": "[1]; replicate 2", "value": -9.21}, {"measurement": "KD, low replicates (log)", "setting": "[1]; replicate 2", "value": -6.52}, {"measurement": "KD, high replicates (log)", "setting": "[1]; replicate 3", "value": -9.93}, {"measurement": "KD, low replicates (log)", "setting": "[1]; replicate 3", "value": -6.58}, {"measurement": "BRETmax", "setting": "[2]; HEK293 membranes, 10 min RT, mean, 95% CI 0.025 to 0.0287", "value": 0.0270}, {"measurement": "Fraction high affinity", "setting": "[2]; mean, 95% CI 0 to 0.1938", "value": 0.0957}, {"measurement": "KD, high replicates (log)", "setting": "[2]; replicate 1", "value": -9.38}, {"measurement": "KD, low replicates (log)", "setting": "[2]; replicate 1", "value": -6.53}, {"measurement": "KD, high replicates (log)", "setting": "[2]; replicate 2", "value": -9.46}, {"measurement": "KD, low replicates (log)", "setting": "[2]; replicate 2", "value": -6.67}, {"measurement": "KD, high replicates (log)", "setting": "[2]; replicate 3", "value": -10.11}, {"measurement": "KD, low replicates (log)", "setting": "[2]; replicate 3", "value": -6.65}, {"measurement": "BRETmax", "setting": "[3]; HEK293 membranes, 10 min RT, mean, 95% CI 0.5907 to 0.7133, P<0.0001 vs WT", "value": 0.6520}, {"measurement": "Low-affinity binding constant reduction vs wild-type", "setting": "[3]; NanoBRET, HEK293 membranes", "value": "about two-fold reduced"}, {"measurement": "Fraction high affinity", "setting": "[3]; mean, 95% CI 0.0357 to 0.0467", "value": 0.0412}, {"measurement": "KD, high replicates (log)", "setting": "[3]; replicate 1", "value": -9.51}, {"measurement": "KD, low replicates (log)", "setting": "[3]; replicate 1", "value": -6.16}, {"measurement": "KD, high replicates (log)", "setting": "[3]; replicate 2", "value": -9.76}, {"measurement": "KD, low replicates (log)", "setting": "[3]; replicate 2", "value": -6.18}, {"measurement": "KD, high replicates (log)", "setting": "[3]; replicate 3", "value": -9.64}, {"measurement": "KD, low replicates (log)", "setting": "[3]; replicate 3", "value": -6.21}, {"measurement": "BRETmax", "setting": "[4]; HEK293 membranes, 10 min RT, mean, 95% CI 0.0273 to 0.0311", "value": 0.0292}, {"measurement": "Fraction high affinity", "setting": "[4]; mean, 95% CI 0.0352 to 0.0881", "value": 0.0617}, {"measurement": "KD, high replicates (log)", "setting": "[4]; replicate 1", "value": -9.88}, {"measurement": "KD, low replicates (log)", "setting": "[4]; replicate 1", "value": -6.52}, {"measurement": "KD, high replicates (log)", "setting": "[4]; replicate 2", "value": -9.40}, {"measurement": "KD, low replicates (log)", "setting": "[4]; replicate 2", "value": -6.56}, {"measurement": "KD, high replicates (log)", "setting": "[4]; replicate 3", "value": -9.43}, {"measurement": "KD, low replicates (log)", "setting": "[4]; replicate 3", "value": -6.54}]}]}
